Measurements published in publication PMC6595629, “Continuous Culture Adaptation of Methylobacterium extorquens AM1 and TK 0001 to Very High Methanol Concentrations” (Frontiers in Microbiology, 2019).

B1: MetY (O-acetyl-L-homoserine sulfhydrylase) (Methylorubrum extorquens AM1) (protein)
chain: MTDRQPGFNTLAIHAGATPDPATGARATPIYQTTSFVFDDVDHAASLFGLQAFGNIYTRITNPTNAVLEERIAALEGGTAALAVASGHAAEFLTLHALMQPGDEFIAANKLYGGSINQFNHSYKNFGWQVVWADTDDPDSFERAITPRTKAIFCESIANPGGVITDIAALSVIAKRHNIPLIVDNTMATPYLIKPFEHGADIVVHSATKFLGGHGNSIGGLIVDGGTFQWQGDARYPMLSEPRPEYAGMVLAETFGNFGFAIAVRVLSLRDLGPSLSPFNAFLILNGIETLPLRMQRHSDNALKVATFLKNHANVDWVSYPGLESDRYHALAQRYTPKGAGAVFTFGLKGGYEAGVKLVSNLQLFSHLANIGDTRSLVIHPASTTHRQLTDEQKRAAGAGPEVVRLSIGIEDAQDLIDDLDAALRA
notes: full-length, N-terminal 6xHis tag, modified pET22b(+), E. coli BL21(DE3), purified; printed primers translate to N-terminus … and C-terminus TLARAA

What was measured:
[1] = biological target: T1, MetY (O-acetyl-L-homoserine sulfhydrylase) (Methylorubrum extorquens, UniProt C5ARH8); assay: coupled acetic acid assay (NADH oxidation, […] nm); assay type: biochemical; settings: pH 7.4, room temperature; co-substrate O-acetyl-L-homoserine saturating
T1 construct: full-length, N-terminal 6xHis tag, modified pET22b(+), E. coli BL21(DE3), purified; printed primers translate to N-terminus MHHHHHHSDQTPASVY and C-terminus TLARAA

[2] = substrate: CC(=O)OCC[C@H](N)C(=O)O; assay: purified protein; assay type: biochemical, Methylorubrum extorquens; settings: pH 7.4, room temperature, other substrate saturating (sulfide or methanol; which one is not given)

Molecule | Km [1] | Km [2] | kcat [2] | kcat/Km [2]
S [Sodium sulfide] | 800 ± 200 µM |  |  | 
B1 |  | 1300 ± 200 µM | 2.32 ± 0.12 s⁻¹ | 1850 M⁻¹ s⁻¹
